Laboratory results from patent US20240076396A1 (Regeneron, published 2024).
Changes are numbered by the printed parent chain. Names and notes keep the numbering of the source.

B1: mAb4 (antibody, human IgG1, kappa, V domains shown)
VH: QVQLQESGPGLVKPSETLSLTCIVSGGSISGYFWNWIRQPPGKGLEWIGYIYYSGTTIYNPSLKSRFTISLDTSKNQFSLKLTSVTAADTAVYYCARESYTPSPRYFDHWGQGTLVTVSS
VL: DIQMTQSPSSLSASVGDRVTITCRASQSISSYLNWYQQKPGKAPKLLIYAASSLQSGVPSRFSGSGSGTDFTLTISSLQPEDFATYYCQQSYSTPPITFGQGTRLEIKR
notes: Human IgG1; N101T variant of CompAb1; also called N101T Variant; N101T
B2: CompAb1 heavy chain variant N101Q (antibody, human IgG1, V domains shown)
VH: B1 VH with T101Q
VL: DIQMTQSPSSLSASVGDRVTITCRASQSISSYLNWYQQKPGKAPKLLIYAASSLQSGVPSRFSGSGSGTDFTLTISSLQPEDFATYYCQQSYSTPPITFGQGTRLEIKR
notes: human IgG1 constant region; tested as CHOt supernatant; also called Sample Number 13
B3: CompAb1 heavy chain variant N101L (antibody, human IgG1, V domains shown)
VH: B1 VH with T101L
VL: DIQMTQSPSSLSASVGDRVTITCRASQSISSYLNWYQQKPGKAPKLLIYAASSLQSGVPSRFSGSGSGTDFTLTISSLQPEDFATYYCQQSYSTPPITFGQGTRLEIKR
notes: human IgG1 constant region; tested as CHOt supernatant; also called Sample Number 10
B4: CompAb1 heavy chain variant S103W (antibody, human IgG1, V domains shown)
VH: B1 VH with T101N, S103W
VL: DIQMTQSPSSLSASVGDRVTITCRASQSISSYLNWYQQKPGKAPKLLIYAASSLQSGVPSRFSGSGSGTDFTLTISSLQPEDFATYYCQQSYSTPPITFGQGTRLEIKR
notes: human IgG1 constant region; tested as CHOt supernatant; also called Sample Number 36
B5: CompAb1 heavy chain variant N101I (antibody, human IgG1, V domains shown)
VH: B1 VH with T101I
VL: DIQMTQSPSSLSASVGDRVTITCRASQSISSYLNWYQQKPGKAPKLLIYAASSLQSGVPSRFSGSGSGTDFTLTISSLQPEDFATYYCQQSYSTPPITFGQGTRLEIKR
notes: human IgG1 constant region; tested as CHOt supernatant; also called Sample Number 8
B6: CompAb1 heavy chain variant S103M (antibody, human IgG1, V domains shown)
VH: B1 VH with T101N, S103M
VL: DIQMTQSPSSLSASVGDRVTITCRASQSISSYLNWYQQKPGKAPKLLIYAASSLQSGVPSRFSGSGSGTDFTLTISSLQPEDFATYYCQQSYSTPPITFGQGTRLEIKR
notes: human IgG1 constant region; tested as CHOt supernatant; also called Sample Number 29
B7: CompAb1 heavy chain variant N101M (antibody, human IgG1, V domains shown)
VH: B1 VH with T101M
VL: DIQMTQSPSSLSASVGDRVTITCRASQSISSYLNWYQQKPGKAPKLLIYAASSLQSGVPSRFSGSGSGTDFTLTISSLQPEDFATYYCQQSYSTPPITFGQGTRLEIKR
notes: human IgG1 constant region; tested as CHOt supernatant; also called Sample Number 11
B8: CompAb1 heavy chain variant S103N (antibody, human IgG1, V domains shown)
VH: B1 VH with T101N, S103N
VL: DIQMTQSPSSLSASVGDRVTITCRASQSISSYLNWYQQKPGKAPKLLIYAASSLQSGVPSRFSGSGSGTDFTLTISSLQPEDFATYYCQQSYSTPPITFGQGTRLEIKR
notes: human IgG1 constant region; tested as CHOt supernatant; also called Sample Number 30
B9: CompAb1 heavy chain variant S103L (antibody, human IgG1, V domains shown)
VH: B1 VH with T101N, S103L
VL: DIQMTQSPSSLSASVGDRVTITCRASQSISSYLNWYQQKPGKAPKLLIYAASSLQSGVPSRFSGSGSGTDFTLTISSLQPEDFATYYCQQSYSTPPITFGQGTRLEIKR
notes: human IgG1 constant region; tested as CHOt supernatant; also called Sample Number 28
B10: CompAb1 heavy chain variant S103R (antibody, human IgG1, V domains shown)
VH: B1 VH with T101N, S103R
VL: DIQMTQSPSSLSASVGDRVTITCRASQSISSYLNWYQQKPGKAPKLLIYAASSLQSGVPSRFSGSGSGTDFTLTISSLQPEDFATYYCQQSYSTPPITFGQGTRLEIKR
notes: human IgG1 constant region; tested as CHOt supernatant; also called Sample Number 33
B11: CompAb1 heavy chain variant S103A (antibody, human IgG1, V domains shown)
VH: B1 VH with T101N, S103A
VL: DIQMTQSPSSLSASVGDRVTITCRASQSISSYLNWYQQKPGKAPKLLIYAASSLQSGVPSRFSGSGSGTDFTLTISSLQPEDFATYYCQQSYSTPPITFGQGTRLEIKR
notes: human IgG1 constant region; tested as CHOt supernatant; also called Sample Number 20
B12: CompAb1 heavy chain variant S103F (antibody, human IgG1, V domains shown)
VH: B1 VH with T101N, S103F
VL: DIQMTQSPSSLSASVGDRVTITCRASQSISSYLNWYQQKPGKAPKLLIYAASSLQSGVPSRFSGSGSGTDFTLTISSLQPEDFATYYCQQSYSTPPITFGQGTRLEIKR
notes: human IgG1 constant region; tested as CHOt supernatant; also called Sample Number 23
B13: CompAb1 heavy chain variant S103E (antibody, human IgG1, V domains shown)
VH: B1 VH with T101N, S103E
VL: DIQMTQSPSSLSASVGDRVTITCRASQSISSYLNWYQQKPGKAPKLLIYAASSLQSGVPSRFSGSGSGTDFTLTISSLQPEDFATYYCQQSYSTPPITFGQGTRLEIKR
notes: human IgG1 constant region; tested as CHOt supernatant; also called Sample Number 22
B14: CompAb1 heavy chain variant S103I (antibody, human IgG1, V domains shown)
VH: B1 VH with T101N, S103I
VL: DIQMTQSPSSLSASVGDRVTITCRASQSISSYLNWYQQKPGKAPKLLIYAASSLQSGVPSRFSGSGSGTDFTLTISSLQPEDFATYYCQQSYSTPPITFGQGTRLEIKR
notes: human IgG1 constant region; tested as CHOt supernatant; also called Sample Number 26
B15: CompAb1 heavy chain variant S103Q (antibody, human IgG1, V domains shown)
VH: B1 VH with T101N, S103Q
VL: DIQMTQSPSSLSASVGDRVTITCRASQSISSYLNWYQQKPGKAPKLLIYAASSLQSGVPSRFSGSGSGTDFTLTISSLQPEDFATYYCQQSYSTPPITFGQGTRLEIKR
notes: human IgG1 constant region; tested as CHOt supernatant; also called Sample Number 32
B16: CompAb1 heavy chain variant S103G (antibody, human IgG1, V domains shown)
VH: B1 VH with T101N, S103G
VL: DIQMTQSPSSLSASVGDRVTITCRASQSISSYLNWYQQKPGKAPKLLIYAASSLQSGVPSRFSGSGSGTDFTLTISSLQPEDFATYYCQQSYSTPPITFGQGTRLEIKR
notes: human IgG1 constant region; tested as CHOt supernatant; also called Sample Number 24

Assays:
[1] = biological target: T1, hGITR.mFc (dimeric recombinant human GITR ectodomain protein, mouse Fc fusion) (human); assay: SPR Biacore 2000 25C; CHOt supernatant antibody captured on anti-human Fc; 50 nM hGITR.mFc
T1 construct: also called dimeric human GITR; dimeric GITR
T1 chain: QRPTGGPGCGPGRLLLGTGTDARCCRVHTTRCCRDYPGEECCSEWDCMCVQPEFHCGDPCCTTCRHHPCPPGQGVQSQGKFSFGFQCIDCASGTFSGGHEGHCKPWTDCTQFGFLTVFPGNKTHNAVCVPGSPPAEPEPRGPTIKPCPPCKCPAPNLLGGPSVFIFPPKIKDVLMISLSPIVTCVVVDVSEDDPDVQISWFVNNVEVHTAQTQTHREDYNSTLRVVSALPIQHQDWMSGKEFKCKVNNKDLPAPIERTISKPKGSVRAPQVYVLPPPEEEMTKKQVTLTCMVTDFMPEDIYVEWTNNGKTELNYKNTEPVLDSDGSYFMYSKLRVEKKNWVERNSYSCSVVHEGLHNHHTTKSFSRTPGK
Procedure: (§1) Biacore experiments for antibodies secreted in conditioned culture medium were performed as follows. Using a Biacore 2000 instrument at 25° C., antibodies were captured for 80 seconds at a flow rate of 8 uL/min on a CM5 anti-humanFc-coupled surface. Approximately 1000-2000 RU of each antibody were captured. 100 nM hGITR.mmH (soluble monomeric hGITR, SEQ ID NO: 45) or 50 nM hGITR.mFc (dimeric Macaca fasicularis GITR, SEQ ID NO: 46) were injected over this surface for 2 minutes at a flow rate of 50 uL/min. Dissociation was measured for 2 minutes. The KD and t_{1/2} were calculated by fitting the double-referenced sensorgrams to a 1:1 binding model.

[2] = biological target: T1, hGITR.mFc (dimeric recombinant human …); assay: SPR Biacore T-200; purified antibody captured on anti-human Fc; 5 nM hGITR.mFc
Procedure: (§2) For purified antibodies, Biacore experiments were performed as follows. Using a Biacore T-200 instrument, antibodies were captured for 30 seconds at a flow rate of 8 uL/min on a CM5 anti-humanFc-coupled surface. Approximately 120 RU of each antibody were captured. 10 nM hGITR.mmH (soluble monomeric hGITR, SEQ ID NO: 45) or 5 nM hGITR.mFc (dimeric Macaca fasicularis GITR, SEQ ID NO: 46) were injected over this surface for 5 minutes at a flow rate of 50 uL/min. Dissociation was measured for 10 min. The KD and t_{1/2} were calculated by fitting the double-referenced sensorgrams to a 1:1 binding model.

[3] = biological target: T2, hGITR.mmH (soluble monomeric recombinant human GITR ectodomain protein) (human); assay: SPR Biacore 2000 25C; CHOt supernatant antibody captured on anti-human Fc; 100 nM hGITR.mmH
T2 construct: also called monomeric human GITR
T2 chain: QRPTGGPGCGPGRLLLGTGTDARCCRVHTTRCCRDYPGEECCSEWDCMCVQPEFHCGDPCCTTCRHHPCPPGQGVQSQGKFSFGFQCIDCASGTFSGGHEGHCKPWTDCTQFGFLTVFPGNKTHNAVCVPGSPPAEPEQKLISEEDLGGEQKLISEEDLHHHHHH
Procedure: as §1

[4] = biological target: T2, hGITR.mmH (soluble monomeric …); assay: SPR Biacore T-200; purified antibody captured on anti-human Fc; 10 nM hGITR.mmH
Procedure: as §2

[5] = biological target: T2, hGITR.mmH (soluble monomeric …); assay: SPR Biacore 2000 25C; CHOt supernatant antibody captured on anti-human Fc
Procedure: as §1

Binder | Kd [1] [nM] | t1/2 [1] [min] | Kd [2] [nM] | t1/2 [2] [min] | Kd [3] [nM] | t1/2 [3] [min] | Kd [4] [nM] | t1/2 [4] [min] | binding result [5]
B1 | 0.284 | 110 | 0.663 | 10 | 61.3 | 1.52 | 8 | 2.25 | –
B2 | 9.98 | 3.86 | – | – | 3.41 | 16.7 | – | – | –
B3 | 57.5 | 0.45 | – | – | – | – | – | – | no binding (tested: 100 nM hGITR.mmH)
B4 | 1.61 | 27 | – | – | 116 | 0.94 | – | – | –
B5 | 27.5 | 0.72 | – | – | 329 | 1.32 | – | – | –
B6 | 1.04 | 27.3 | – | – | 4.62 | 15.2 | – | – | –
B7 | 24 | 0.82 | – | – | 152 | 1.93 | – | – | –
B8 | 1.01 | 41.4 | – | – | 119 | 0.95 | – | – | –
B9 | 15.9 | 1.66 | – | – | 85.2 | 4.59 | – | – | –
B10 | 45.6 | 0.75 | – | – | – | – | – | – | no binding (tested: 100 nM hGITR.mmH)
B11 | 0.529 | 50.3 | – | – | 108 | 0.83 | – | – | –
B12 | 2.33 | 12.8 | – | – | 7.35 | 13.6 | – | – | –
B13 | 0.742 | 42.4 | – | – | 119 | 0.76 | – | – | –
B14 | 6.51 | 4.41 | – | – | 10.1 | 11.5 | – | – | –
B15 | 0.255 | 124 | – | – | 96.8 | 0.92 | – | – | –
B16 | 5.56 | 7.4 | – | – | – | – | – | – | –
